B1: wildtype HPV31 E6 fused to the VP16 transcriptional activation domain [human papillomavirus type 31] / pep11** fused to the GAL4 DNA binding domain (parent complex)
chain 1: MFKNPAERPRKLHELSSALEIPYDELRLNCVYCKGQLTETEVLDFAFTDLTIVYRDDTPHGVCTKCLRFYSKVSEFRWYRYSVYGTTLEKLTNKGICDLLIRCITCQRPLCPEEKQRHLDKKKRFHNIGGRWTGRCIACWRRPRTETQV
chain 2: KEKEEYNSNCSCIACIGLI

Variants of: B1
Assay: mammalian two-hybrid; E6 constructs contain an additional flag-tag between E6 and the VP16-AD; RLA relative to pep11**-GAL4-BD + empty pACT set at 1.0; read off a plot

First: chain 1 W78A
Second: chain 1 W78H
The response of the first is lower: about 1.2 RLA for the first, about 39 RLA for the second.
